# In IntAct's records for PubMed 18647389:
# B1: RalBP1-associated Eps domain-containing protein 2 (Homo sapiens), Q8NFH8 (parent)
# chain: MEAAAAAAAAAAAAAAAGGGCGSGPPPLLLSEGEQQCYSELFARCAGAAGGGPGSGPPEAARVAPGTATAAAGPVADLFRASQLPAETLHQITELCGAKRVGYFGPTQFYIALKLIAAAQSGLPVRIESIKCELPLPRFMMSKNDGEIRFGNPAELHGTKVQIPYLTTEKNSFKRMDDEDKQQETQSPTMSPLASPPSSPPHYQRVPLSHGYSKLRSSAEQMHPAPYEARQPLVQPEGSSSGGPGTKPLRHQASLIRSFSVERELQDNSSYPDEPWRITEEQREYYVNQFRSLQPDPSSFISGSVAKNFFTKSKLSIPELSYIWELSDADCDGALTLPEFCAAFHLIVARKNGYPLPEGLPPTLQPEYLQAAFPKPKWDCQLFDSYSESLPANQQPRDLNRMEKTSVKDMADLPVPNQDVTSDDKQALKSTINEALPKDVSEDPATPKDSNSLKARPRSRSYSSTSIEEAMKRGEDPPTPPPRPQKTHSRASSLDLNKVFQPSVPATKSGLLPPPPALPPRPCPSQSEQVSEAELLPQLSRAPSQAAESSPAKKDVLYSQPPSKPIRRKFRPENQATENQEPSTAASGPASAATMKPHPTVQKQSSKQKKAIQTAIRKNKEANAVLARLNSELQQQLKEVHQERIALENQLEQLRPVTVL
# partner: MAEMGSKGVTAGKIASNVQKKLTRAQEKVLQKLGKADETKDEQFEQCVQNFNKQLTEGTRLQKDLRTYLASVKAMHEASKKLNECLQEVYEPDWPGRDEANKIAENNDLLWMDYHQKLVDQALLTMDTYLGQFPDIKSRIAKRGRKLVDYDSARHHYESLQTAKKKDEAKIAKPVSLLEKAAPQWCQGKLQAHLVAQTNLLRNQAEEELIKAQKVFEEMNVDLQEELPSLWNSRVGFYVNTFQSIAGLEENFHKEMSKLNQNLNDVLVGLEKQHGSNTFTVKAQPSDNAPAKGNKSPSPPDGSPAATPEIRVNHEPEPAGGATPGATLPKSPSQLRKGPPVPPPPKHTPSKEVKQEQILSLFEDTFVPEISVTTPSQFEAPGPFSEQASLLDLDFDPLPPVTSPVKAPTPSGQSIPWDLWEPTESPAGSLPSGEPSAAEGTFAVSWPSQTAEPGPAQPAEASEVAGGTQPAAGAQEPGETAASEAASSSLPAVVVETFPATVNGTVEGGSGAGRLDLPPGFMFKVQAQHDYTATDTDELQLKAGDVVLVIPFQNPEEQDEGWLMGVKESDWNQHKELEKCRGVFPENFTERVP
# B2: RalBP1-associated Eps domain-containing protein 2 (Homo sapiens), Q8NFH8 (parent)
# chain: B1 chain
# Variants of: B1
# Details: with bin1_human BIN1, O00499
row,effect of a mutation on the interaction,Variant
1,decreasing interaction,R483A

# Variants of: B1
# Details: with bin1_human BIN1, O00499
# Remark: another data set of the same source
row,effect of a mutation on the interaction,Variant
1,disrupting interaction strength,R483A

# Variants of: B1
# Details: with bin1_human BIN1, O00499
# Remark: another data set of the same source
row,effect of a mutation on the interaction,Variant
1,disrupting interaction,P447A

# Variants of: B2
# Details: with grb2_human GRB2, P62993
row,effect of a mutation on the interaction,Variant
1,disrupting interaction,P484A

# Variants of: B2
# Details: with grb2_human GRB2, P62993
# Remark: another data set of the same source
row,effect of a mutation on the interaction,Variant
1,disrupting interaction,R483A

# Variants of: B2
# Details: with grb2_human GRB2, P62993
# Remark: another data set of the same source
row,effect of a mutation on the interaction,Variant
1,disrupting interaction,P480A

# Variants of: B2
# Details: with 1433z_human YWHAZ
row,effect of a mutation on the interaction,Variant
1,disrupting interaction,S493A
